Reference: US20090285799A1 (CSL, published 2009)

T1: hIL-13Rα1.ECR (N-terminal FLAG-tagged fusion protein of the extracellular region of human IL-13Rα1) (human, UniProt P78552 29-343)
T1 construct: also called human IL-13Rα1.ECR; hIL-13Rα1 extracellular domain
T1 sequence: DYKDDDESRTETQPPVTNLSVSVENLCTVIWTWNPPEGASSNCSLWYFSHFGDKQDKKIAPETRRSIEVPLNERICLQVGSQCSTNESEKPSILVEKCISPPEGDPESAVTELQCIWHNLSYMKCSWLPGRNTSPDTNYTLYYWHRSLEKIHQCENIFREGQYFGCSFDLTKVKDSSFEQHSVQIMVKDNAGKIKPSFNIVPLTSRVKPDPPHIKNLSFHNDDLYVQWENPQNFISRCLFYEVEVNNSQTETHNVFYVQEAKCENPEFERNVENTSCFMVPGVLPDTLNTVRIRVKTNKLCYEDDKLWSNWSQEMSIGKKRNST

T2: human IL-13Rα1 on normal human dermal fibroblast (NHDF) cells (human, UniProt P78552 27-427)
T2 sequence: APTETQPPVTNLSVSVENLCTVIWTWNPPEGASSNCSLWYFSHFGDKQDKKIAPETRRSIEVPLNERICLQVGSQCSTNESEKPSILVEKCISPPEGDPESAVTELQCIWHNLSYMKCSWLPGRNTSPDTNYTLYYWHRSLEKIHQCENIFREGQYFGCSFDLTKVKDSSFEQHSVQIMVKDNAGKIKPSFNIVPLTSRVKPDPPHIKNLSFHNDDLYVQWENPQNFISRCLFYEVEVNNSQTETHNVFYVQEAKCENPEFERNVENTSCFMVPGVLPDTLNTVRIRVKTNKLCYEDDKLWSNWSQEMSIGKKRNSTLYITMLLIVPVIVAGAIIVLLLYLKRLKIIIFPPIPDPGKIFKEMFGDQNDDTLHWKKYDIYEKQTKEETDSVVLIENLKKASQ


target: T1, hIL-13Rα1.ECR (N-terminal FLAG-tagged …); experiment: BIACORE SPR, chip-bound hIL-13Rα1 extracellular domain, Fab format

Binder	Kd
8B4 (Fab) (Fab, V domains shown, Fab format from vector pFab3d) VH: EVQVLESGGGLVQPGGSLRLSCAASGFTFSNYAMTWVRQAPGKGLEWVSTISGRGYSIYYADSVKGRFTISRDNSKNTVYLQMNSLRAEDTAVYYCAKEEGHWYFDVWGRGTLVTVSS VL: EIVLTQSPDFQSVTPKEKVTITCRASQSIGSSLHWYQQKPDQSPKLLIKYASQSFSGVPSRFSGSGSGTDFTLTINSLEAEDAAAYYCHQSSSLPYTFGQGTKLEIK	2.15 nM
8B4-80C (Fab) (Fab, V domains shown, Fab format; only CDR3s were mutated) VH: EVQVLESGGGLVQPGGSLRLSCAASGFTFSNYAMTWVRQAPGKGLEWVSTISGRGYSIYYADSVKGRFTISRDNSKNTVYLQMNSLRAEDTAVYYCAKEEGHWYFDVWGRGTLVTVSS VL: EIVLTQSPDFQSVTPKEKVTITCRASQSIGSSLHWYQQKPDQSPKLLIKYASQSFSGVPSRFSGSGSGTDFTLTINSLEAEDAAAYYCMSSWGLPYTFGQGTKLEIK	0.25 nM
8B4-82 (Fab) (Fab, V domains shown, Fab format; only CDR3s were mutated) VH: EVQVLESGGGLVQPGGSLRLSCAASGFTFSNYAMTWVRQAPGKGLEWVSTISGRGYSIYYADSVKGRFTISRDNSKNTVYLQMNSLRAEDTAVYYCAKEEGHWYFDVWGRGTLVTVSS VL: EIVLTQSPDFQSVTPKEKVTITCRASQSIGSSLHWYQQKPDQSPKLLIKYASQSFSGVPSRFSGSGSGTDFTLTINSLEAEDAAAYYCASSRGLPYTFGQGTKLEIK	0.073 nM
8B4-18C (Fab) (Fab, V domains shown, Fab format; only CDR3s were mutated) VH: EVQVLESGGGLVQPGGSLRLSCAASGFTFSNYAMTWVRQAPGKGLEWVSTISGRGYSIYYADSVKGRFTISRDNSKNTVYLQMNSLRAEDTAVYYCAKEEGHWYFDVWGRGTLVTVSS VL: EIVLTQSPDFQSVTPKEKVTITCRASQSIGSSLHWYQQKPDQSPKLLIKYASQSFSGVPSRFSGSGSGTDFTLTINSLEAEDAAAYYCMNSLGLPYTFGQGTKLEIK	0.085 nM
8B4-74C (Fab) (Fab, V domains shown, Fab format; only CDR3s were mutated) VH: EVQVLESGGGLVQPGGSLRLSCAASGFTFSNYAMTWVRQAPGKGLEWVSTISGRGYSIYYADSVKGRFTISRDNSKNTVYLQMNSLRAEDTAVYYCAKEEGHWYFDVWGRGTLVTVSS VL: EIVLTQSPDFQSVTPKEKVTITCRASQSIGSSLHWYQQKPDQSPKLLIKYASQSFSGVPSRFSGSGSGTDFTLTINSLEAEDAAAYYCMSSLGLPYTFGQGTKLEIK	0.045 nM
8B4-36 (Fab) (Fab, V domains shown, Fab format; only CDR3s were mutated) VH: EVQVLESGGGLVQPGGSLRLSCAASGFTFSNYAMTWVRQAPGKGLEWVSTISGRGYSIYYADSVKGRFTISRDNSKNTVYLQMNSLRAEDTAVYYCAKEEGHWYFDVWGRGTLVTVSS VL: EIVLTQSPDFQSVTPKEKVTITCRASQSIGSSLHWYQQKPDQSPKLLIKYASQSFSGVPSRFSGSGSGTDFTLTINSLEAEDAAAYYCVSSWGLPYTFGQGTKLEIK	0.085 nM
8B4-78M (Fab) (Fab, V domains shown, Fab format; only CDR3s were mutated) VH: EVQVLESGGGLVQPGGSLRLSCAASGFTFSNYAMTWVRQAPGKGLEWVSTISGRGYSIYYADSVKGRFTISRDNSKNTVYLQMNSLRAEDTAVYYCAKEEGHWYFDVWGRGTLVTVSS VL: EIVLTQSPDFQSVTPKEKVTITCRASQSIGSSLHWYQQKPDQSPKLLIKYASQSFSGVPSRFSGSGSGTDFTLTINSLEAEDAAAYYCMSSMGLPYTFGQGTKLEIK	0.049 nM
8B4-21C (Fab) (Fab, V domains shown, Fab format; only CDR3s were mutated) VH: EVQVLESGGGLVQPGGSLRLSCAASGFTFSNYAMTWVRQAPGKGLEWVSTISGRGYSIYYADSVKGRFTISRDNSKNTVYLQMNSLRAEDTAVYYCAKEEGHWYFDVWGRGTLVTVSS VL: EIVLTQSPDFQSVTPKEKVTITCRASQSIGSSLHWYQQKPDQSPKLLIKYASQSFSGVPSRFSGSGSGTDFTLTINSLEAEDAAAYYCKSSAGLPYTFGQGTKLEIK	0.17 nM

target: T2, human IL-13Rα1 on normal human dermal …; experiment: cell-based or functional assay

Binder	inhibition of eotaxin release from NHDF cells upon stimulation with IL-13 (IC50)
8B4-IgG4 (antibody, V domains shown, Recombinant full-length antibody of subclass IgG4 with kappa light chain (Lonza pCONGAMMA4/pCONKAPPA vectors), made in 293 cells) VH: EVQVLESGGGLVQPGGSLRLSCAASGFTFSNYAMTWVRQAPGKGLEWVSTISGRGYSIYYADSVKGRFTISRDNSKNTVYLQMNSLRAEDTAVYYCAKEEGHWYFDVWGRGTLVTVSS VL: EIVLTQSPDFQSVTPKEKVTITCRASQSIGSSLHWYQQKPDQSPKLLIKYASQSFSGVPSRFSGSGSGTDFTLTINSLEAEDAAAYYCHQSSSLPYTFGQGTKLEIK	~1 mg/L
8B4-21C (eotaxin assay) (antibody, V domains shown) VH: EVQVLESGGGLVQPGGSLRLSCAASGFTFSNYAMTWVRQAPGKGLEWVSTISGRGYSIYYADSVKGRFTISRDNSKNTVYLQMNSLRAEDTAVYYCAKEEGHWYFDVWGRGTLVTVSS VL: EIVLTQSPDFQSVTPKEKVTITCRASQSIGSSLHWYQQKPDQSPKLLIKYASQSFSGVPSRFSGSGSGTDFTLTINSLEAEDAAAYYCKSSAGLPYTFGQGTKLEIK	0.75 mg/L
8B4-78M (optimized antibody, eotaxin assay) (antibody, V domains shown) VH: EVQVLESGGGLVQPGGSLRLSCAASGFTFSNYAMTWVRQAPGKGLEWVSTISGRGYSIYYADSVKGRFTISRDNSKNTVYLQMNSLRAEDTAVYYCAKEEGHWYFDVWGRGTLVTVSS VL: EIVLTQSPDFQSVTPKEKVTITCRASQSIGSSLHWYQQKPDQSPKLLIKYASQSFSGVPSRFSGSGSGTDFTLTINSLEAEDAAAYYCMSSMGLPYTFGQGTKLEIK	~0.1 mg/L
8B4-82 (eotaxin assay) (antibody, V domains shown) VH: EVQVLESGGGLVQPGGSLRLSCAASGFTFSNYAMTWVRQAPGKGLEWVSTISGRGYSIYYADSVKGRFTISRDNSKNTVYLQMNSLRAEDTAVYYCAKEEGHWYFDVWGRGTLVTVSS VL: EIVLTQSPDFQSVTPKEKVTITCRASQSIGSSLHWYQQKPDQSPKLLIKYASQSFSGVPSRFSGSGSGTDFTLTINSLEAEDAAAYYCASSRGLPYTFGQGTKLEIK	1.31 mg/L
8B4-74C (eotaxin assay) (antibody, V domains shown) VH: EVQVLESGGGLVQPGGSLRLSCAASGFTFSNYAMTWVRQAPGKGLEWVSTISGRGYSIYYADSVKGRFTISRDNSKNTVYLQMNSLRAEDTAVYYCAKEEGHWYFDVWGRGTLVTVSS VL: EIVLTQSPDFQSVTPKEKVTITCRASQSIGSSLHWYQQKPDQSPKLLIKYASQSFSGVPSRFSGSGSGTDFTLTINSLEAEDAAAYYCMSSLGLPYTFGQGTKLEIK	0.1 mg/L
8B4-36 (eotaxin assay) (antibody, V domains shown) VH: EVQVLESGGGLVQPGGSLRLSCAASGFTFSNYAMTWVRQAPGKGLEWVSTISGRGYSIYYADSVKGRFTISRDNSKNTVYLQMNSLRAEDTAVYYCAKEEGHWYFDVWGRGTLVTVSS VL: EIVLTQSPDFQSVTPKEKVTITCRASQSIGSSLHWYQQKPDQSPKLLIKYASQSFSGVPSRFSGSGSGTDFTLTINSLEAEDAAAYYCVSSWGLPYTFGQGTKLEIK	0.17 mg/L

target: T1, hIL-13Rα1.ECR (N-terminal FLAG-tagged …); experiment: KINEXA kinetic exclusion assay, full-length IgG4

Binder	Kd
8B4-IgG4 (antibody, V domains shown, Recombinant full-length antibody of subclass IgG4 with kappa light chain (Lonza pCONGAMMA4/pCONKAPPA vectors), made in 293 cells) VH: EVQVLESGGGLVQPGGSLRLSCAASGFTFSNYAMTWVRQAPGKGLEWVSTISGRGYSIYYADSVKGRFTISRDNSKNTVYLQMNSLRAEDTAVYYCAKEEGHWYFDVWGRGTLVTVSS VL: EIVLTQSPDFQSVTPKEKVTITCRASQSIGSSLHWYQQKPDQSPKLLIKYASQSFSGVPSRFSGSGSGTDFTLTINSLEAEDAAAYYCHQSSSLPYTFGQGTKLEIK	0.68 nM
8B4-78M-IgG4 (antibody, V domains shown, Full-length IgG4, kappa) VH: EVQVLESGGGLVQPGGSLRLSCAASGFTFSNYAMTWVRQAPGKGLEWVSTISGRGYSIYYADSVKGRFTISRDNSKNTVYLQMNSLRAEDTAVYYCAKEEGHWYFDVWGRGTLVTVSS VL: EIVLTQSPDFQSVTPKEKVTITCRASQSIGSSLHWYQQKPDQSPKLLIKYASQSFSGVPSRFSGSGSGTDFTLTINSLEAEDAAAYYCMSSMGLPYTFGQGTKLEIK	0.038 nM
8B4-18C-IgG4 (antibody, V domains shown, Full-length IgG4, kappa) VH: EVQVLESGGGLVQPGGSLRLSCAASGFTFSNYAMTWVRQAPGKGLEWVSTISGRGYSIYYADSVKGRFTISRDNSKNTVYLQMNSLRAEDTAVYYCAKEEGHWYFDVWGRGTLVTVSS VL: EIVLTQSPDFQSVTPKEKVTITCRASQSIGSSLHWYQQKPDQSPKLLIKYASQSFSGVPSRFSGSGSGTDFTLTINSLEAEDAAAYYCMNSLGLPYTFGQGTKLEIK	0.051 nM
